In patent US7951775B2, “Methods and pharmaceutical compositions for GnRH-I and GnRH-II modulation of T-cell activity, adhesion, migration and extravasation” (priority 2001, dated 2011):
Entries after “also recorded” stand apart in the source; their conditions may differ.

B1: GnRH-II: unique ten amino acid long neuropeptide, 70% homologous in peptide structure to GnRH-I, encoded by its own gene (peptide)
peptide: QHWSHGWYPGGKRALSSAQDPQNALRPPGRALDTAAGSPVQTAHGLPSDALAPLDDSMPWEGRTTAQWSLHRKRHLARTLLTAAREPRPAPPSSNKV

What was measured:
normal human T-cells = experiment: In-vitro chemotactic migration assay towards SDF-1 through laminin-coated filters; assay type: cell-based; settings: 10 nM, at least 18 h pretreatment; four independent experiments
Procedure: Normal human T-cells (1×10^6 cells/well in rest medium) were pretreated with GnRH-I or GnRH-II (10 nM, >18 hours, 37° C., 7.5% CO2 humidified incubator), washed, resuspended in adhesion medium and fluorescently labeled (50 μg/ml, 30 minutes, 37° C., 7.5% CO2 humidified incubator) with 2′,7′-bis-(2-carboxyethyl)-5-(and-6)-carboxyfluorescein acetoxymethyl (BCECF AM, Molecular Probes, Eugene, Oreg.). The cells were then washed, resuspended in adhesion medium, and added to the upper chambers (2×10^5 cells per 100 μl well) of a 24-well chemotaxis microchamber plate (Corning Inc., Corning, N.Y.). The two compartments of the microchambers were separated by polycarbonate filters ([…] pore size) pre-coated with laminin ([…], about 1.5 hour, 37° C.). […]
Adhesion of T-cells to components of the basement membrane is a crucial step in the series of events that eventually enable T-cells to migrate and extravasate from the blood stream to specific tissues. […] To determine whether GnRH can induce T-cells to migrate towards a chemoattractant, we made use of the Boyden chamber migration assay and scored the number of fluorescence-labeled normal human T-cells which migrated from a medium-containing upper chamber to a chemoattractant-containing lower chamber. […]

EL-4 T-lymphoma cells [1] = experiment: Double immunofluorescence staining for 67 kDa LR and TCRαβ on EL-4 cells; assay type: cell-based, mouse; settings: 10 nM, vs untreated EL-4 cells
Procedure: Normal human T-cells, isolated from fresh peripheral blood lymphocytes, or EL-4 T-lymphocyte cells were subjected to double immunofluorescence staining, using a mouse monoclonal anti-67 kDa LR antibody (100 μl of 1:20 dilution per 1×10^6 cells/tube; 30 minutes on ice), or normal mouse sera for control. The cells were then stained with an FITC-conjugated goat anti-mouse IgG (100 μl of 1:100 dilution), and PE-conjugated mouse anti-human TCR αβ mAb (2 μl of stock). Cells that were stained only with the second and third antibodies served as additional negative controls. Fluorescence profiles were recorded in a FACSORT.
Normal syngeneic C57BL/6 female recipient mice were then subjected to 300 rad total body irradiation, and several hours later inoculated I.P with 5×10^6 cells/mouse of either untreated or GnRH-treated EL-4 lymphoma cells. In parallel, samples from the treated and GnRH inoculated EL-4 cells were tested by double immunofluorescence (as described above) for the level of their 67 kD LR and TCRαβ. […] Following further dilution in PBS for the kidney (1:3) and liver (1:10), the number of fluorescent cells, as well as the total number of cells in each tube, were counted by flow cytometry (FACSORT).

EL-4 T-lymphoma cells [2] = experiment: Homing of GnRH-treated EL-4 T-lymphoma in vivo into specific organs of normal syngeneic mice; design: species or system mouse; settings: EL-4 cells treated ex vivo 10 nM; for mean number of EL-4 labeled cells detected in the bone marrow: 48 h, C57BL/6 recipients n=5, untreated 149825±8424; for increase in entry into bone marrow over untreated control cells: C57BL/6 recipients; for entry of EL-4 cells into the spleen / level of EL-4 cells entry into thymus, kidney and liver, or their number in the plasma: vs untreated cells
Procedure: Mouse EL-4 T-lymphoma cells were incubated without any further treatment or with either GnRH-I or GnRH-II (10 nM) for […] (37° C., 7.5% CO2 in a humidified incubator) and then washed, counted, and fluorescently labeled with BCECF AM (30 minutes 37° C., 7.5% CO2 humidified incubator), as described above.
Normal syngeneic C57BL/6 female recipient mice were then subjected to 300 rad total body irradiation, and several hours later inoculated I.P with 5×10^6 cells/mouse of either untreated or GnRH-treated EL-4 lymphoma cells. In parallel, samples from the treated and GnRH inoculated EL-4 cells were tested by double immunofluorescence (as described above) for the level of their 67 kD LR and TCRαβ. After […], the spleen, thymus, kidney, liver, bone marrow, and a fixed volume of blood were removed from the recipient mice into tubes containing 10 ml PBS, and cell suspensions were prepared from each organ of each individual mouse. Following further dilution in PBS for the kidney (1:3) and liver (1:10), the number of fluorescent cells, as well as the total number of cells in each tube, were counted by flow cytometry (FACSORT).
To assess whether exposure of EL-4 T-lymphoma cells to GnRH modulated their immigration and organ invasion profiles in vivo, the EL-4 cells were treated ex vivo with GnRH-I or GnRH-II (10 nM, 48 h), loaded with a fluorescent dye, and inoculated into normal syngeneic C57BL/6 (H-2b) recipient mice. After 48 hours, the spleen, thymus, kidney, liver, bone marrow, and a fixed volume of blood were removed, individual cells suspensions were prepared and the number of labeled immigrating cells, as well as the total number of cells present in each organ (labeled+non-labeled) was counted by flow cytometry.

[3] = test system: mouse antigen-specific T cells; experiment: Atlas mouse cDNA expression array of GnRH-II treated T-cells; assay type: cell-based
Procedure: Anti-MBP 87-99 T-cell lines were established from lymph nodes of SJI/J mice as described^23 and analyzed for their specificity to MBP 87-99 peptide in a proliferation assay.
Poly A+RNA was extracted from the mouse anti-MBP 87-99 cell line before and after treatment with 10 nM GnRH-II for 24 hours, using the ATLAS Pure Total RNA Labeling System (Clontech Laboratories, Inc. Palo Alto, Calif.) according to manufacturers recommendations. Following DNase treatment, ^32P-labeled cDNA was prepared from poly A+ RNA preparations that were prepared from either untreated or GnRH-II treated mouse T-cells. Hybridizations to the ATLAS Mouse cDNA Expression Arrays membranes (Catalog No. PT3140-1, Clontech Laboratories), were performed according to the user manual, and the expression pattern was visualized by autoradiography.
Poly A+ RNA was prepared from both GnRH-II-treated and untreated cells and reverse transcribed to ^32P-labeled cDNA. Using an Atlas cDNA expression array (i.e. a positively charged nylon membrane spotted with 1200 different cDNAs) for identification of effected genes, the reverse transcribed products were characterized by hybridization to the atlas membranes. The differential pattern of expression between untreated cells and GnRH-II-treated cells was visualized by autoradiography (FIGS. 1A and 1B).

Row | Molecule | migration of T-cells towards chemoattractant SDF-1 (normal human T-cells) | surface level of 67 kDa LR on TCR αβ+ EL-4 cells (EL-4 T-lymphoma cells [1]) | mean number of EL-4 labeled cells detected in the bone marrow (EL-4 T-lymphoma cells [2]) | increase in entry into bone marrow over untreated control cells (EL-4 T-lymphoma cells [2]) | entry of EL-4 cells into the spleen (EL-4 T-lymphoma cells [2]) | level of EL-4 cells entry into thymus, kidney and liver, or their number in the plasma (EL-4 T-lymphoma cells [2]) | expression of mRNA encoding non-integrin 67 kDa laminin receptor ([3]; 10 nM, 24 hours, resting mouse antigen-specific T-cells, vs untreated cells) | transcription of other genes including house-keeping gene nucleoside diphosphate kinase B ([3]; 10 nM, 24 hours, vs untreated cells) | synthesis of CD4 antigen, Cyclin D2 and thymus cell antigen 1 genes (changed by antigenic stimulation) ([3]; GnRH-II alone 10 nM, data not shown)
1 | pGlu-His-Trp-Ser-Tyr-Gly-Leu-Arg-Pro-Gly-NH2 [GnRH-I] | directly increase the migration potential; also recorded: significantly augments | increases | 321400±15165 | 115% | significant enhanced entry | did not affect |  |  | 
2 | B1 | directly increase the migration potential; also recorded: significantly augments | increases | 219280±14003 | 46% | significant enhanced entry | did not affect | induced the over expression | not affected | did not affect
